Data on nine molecules can be found in patent US12077763B2, “RNA-based control of powdery mildew” (Greenlight Biosciences, Inc., priority 2021, dated 2024).

This data set has as its system E. necator. The data set can be described thus: Leaf disc assay, dry inoculum (settling tower), decrease in disease severity / hyphal growth (Example 2). To be noted: decrease in disease severity (hyphal growth) relative to untreated control, value ± SE; for % decrease =/− SE TP1: time point 1 (untreated control hyphal growth ≥50%); for % decrease =/− SE TP2: time point 2.

B1: GS1868: dsRNA trigger SEQ ID NO 177; gene target Glycine-rich RNA-binding protein 4, mitochondrial (nucleic acid)
chain: TGCCCCATGAGAGACCGCCAATAAAGAGTTTAGGCATTCTGTATGTTAATTTTTATCCTCGCGAACCTGGTATAAAGTCTTAATCTCCGCGTGCATCCTTGAATAAAATGTGACAACGCCATCGAGTTTGAGAGGGAGAGAGAAAGTGGATACGGAACAGTTAAAGAAAAGTACATCGGGATATAACAAAACCTCCGTGTAGCATACAAATGAGGGGACGATGAATATATTTGTTTGCTTGGTGAACAGGCCGGGGAGGATTGGGATGAAGTAATGTTAGTACACACTGTCAGAGAACTAACGAACTTCTAGTGAGTTGCTCAAGAAGAGCAAAGTGCTGCGTTTATAGGGAGACCTGATGAACTTTATTAATTCGGTTTGGAGGAGCAATTTTTATAATGGACTGGAGTAACCGATCAGTCAATTTCGTGATAGAACTATTCTTCCGCAAATTGAGACGCAAAAGCTCTCTGATTGTGATGACAAGAGTTTTGCGGGTCTCAATAAAGGAATTGATGTTT
Take B1: the “% decrease =/− SE TP1” value was 1 ± 6%.

B2: GS1870: dsRNA trigger SEQ ID NO 170; gene target Myosin-24 (nucleic acid)
chain: ATTTCTCATTCGCGTAGTTGATACAGAATTGCTCGAATGAGTTTTTTGCAAAGTGTTCGAATCCATAAATATCTAAAACTCCTATAAATGACTTGACACGGCTTAAGACTTCTTCAGCAGCCAACGCATAATTGATATTTTCAACAAGCCAGTCAAAAAGACTTGAATAAACAAATTTAGCGACCGAATCTCGAACAACAATGGCTTGCTGTTGGCTTAAGCTACTAACGACTTTATCTCCCCGGGTAATTAATTGCTTCTTGACTGTCCATCTAGCAAATTCCACCGGATCAATGCCCAAAATTGAAGCAGCAATCTCTAGAGAAGGCTCATTAGGAGTAAGTGAAGATTCATTTCTTGTGGCAGTAATCTTAACATTTCCAAGATGTAGTAATGCTGCAAGTATTTTAAATATTTCGGTCTGCTGATCCTGTTTGACTCCAATTGTTGCTAGGGACTTTTTGAGTGCTTCGAATTCGGCTTTATCATCAACTCCATCTATTGAAGGTGA
As to B2, the “% decrease =/− SE TP1” value is 11 ± 5% and the “% decrease =/− SE TP2” value is on record as 13 ± 8%.

B3: GS1869: dsRNA trigger SEQ ID NO 166; gene target General alpha-glucoside permease (nucleic acid)
chain: CGGCCCCATCGAACCATACTTTTTGCAAAAAGATGGCATCGCATAGAATTGAGCAAGCAAGAGATTATCGTAACCTTCCATAATAATACCAGTTGAGATAGCAACACTATAAACAGCAGCTGGCCACCACAATTTTAGAGCTTCGTTGACAGTCATATTCTTTTCAAGCTCTTCCGCACGATGGGCACCCTGAGTGGTATAGTACTGACTCTTTTCCAAAGAAGGAGCTCGGCCAATGTCCTCCTCATGCTTGGCAGTAGTTTCAAGAATGGACTTGTCGATAATAGACATTTTGAGAGTTGAGAAGTCAAAAAAATTTTGAAGTAAAGATCAGACTAAAGGTGAGTTTGGGGATTTAAAAAAAGAATATTAGGGTAAGGTTATGATTGAGTTCACAAGGGAATAGGTTTTCTAGAAAGAGCATGAAGGAAAGACATAAAACCTGAGAGTGATATTTGGATAATTTTGAATTCCATCGTCAACAGCTTCGGGAGACAAGTCTTTATAGAATTCTGAT
Consider B3, for which the “% decrease =/− SE TP1” value is given as 21 ± 7% and the “% decrease =/− SE TP2” value was found to be 17 ± 7%.

B4: GS1884: dsRNA trigger SEQ ID NO 187; gene target Peptidyl-prolyl cis-trans isomerase ssp-1 (nucleic acid)
chain: TAATACTTCATCTGGAAGCCATCGAGTTTGCTTTTTATTATCTGAATTTTTGAGGCATTAAACTACAATACCTATTAAGGTTCAATTCAACGTTACAGTATGTAGCAGTAAATATCATTTTTGGTATAAGAATAAAAATATTCAAATTTTTACCGAAAAAAATGAAGCAGTAAGTCATATTTCTGGGTCAAGTCTCTGTAAGTCTTGCGCATCAAGCTTGCAATTGAGACTCCAAATGTGACTGGATATGTATATATATATATATATGGTGTTATAGTTGTCAAATCGAATCTATTCTATTCTTTGAATCAGATGTAGACCAGATGCTGTTTCTATGATTTGACTCATTTCTCCAACTTTGAGTTCGAATGCAGCATCTTCGAATTCTTTCTGCATATCACCTCTACCAAAGAAACCAAGGTCACCTTGTTTTTTAGCACTATTGCAATCAGACTC
In the case of B4, the “% decrease =/− SE TP1” value came out at 12 ± 4%.

B5: ES45: dsRNA trigger SEQ ID NO 109; gene target Hypotethical effector (nucleic acid)
DNA: CTCACCTTGGCATCTACGAAGCCGACAGGAAGGTGGTGGCTACTATGGCCAACCATCGAATGGTGATGGAAGTGTGTATCCACCTTCATCTGGTACAGGTGGCTTTCTATCGCCAACTGCTACGAGCGGTTATCCGTCTGCAACTGGAACTGGCGGCTATTCATCTCCATCGGGCACCGGTGGCTACCCGTCTGCAACAGTTGAAAAAGACAATATTTCGAAGTTCCCGAGAGCTTTCGTATCCGGCAATGACTGCATCACGTCGAATTTCTACGATCCAAGACGAAAATAGTTTGTTTTTTTGCTGTTGGCGTGGAGTCTAGCTGTTGTGTACCCGAACCCTATTCGGATCATCAAATAGGATTGTAAGTTGGTTCATCATTTTATGAACAGATTCAAATTGTATTACCCCATTCTTAATCAATACCATGCAGGTGTGACTGACAGTC
Regarding B5, the “% decrease =/− SE TP1” value worked out at 41 ± 5% and the “% decrease =/− SE TP2” value came out at 31 ± 7%.

B6: GS1873: dsRNA trigger SEQ ID NO 153; gene target Probable serine/threonine-protein kinase fhkC (nucleic acid)
chain: CACATCGAGATATAAAACCCGAAAATATACTTCTCATGAATAGAACTCCTACTATTAAATTAGGTGATTTTGGCTTGGCCAAGATCGTTGGTGAGGAATCATTCACAACAAGCTTATGTGGAACACCCAGTTATGTTGCACCAGAGATCCTTGAAGACTCAGATAATCGGCGTTACAATCGAGCTGTTGATATTTGGGCTCTAGGTGTTGTTCTTTACATTTGCCTCTGTGGCTTCCCGCCATTCTCTGATGAATTGACCAGTAATGATTATCCTTACACTCTTGTCCAGCAGATTAAAATTGGTCAGTTCGACTTCCCATCGCCATATTGGGATAATATAGGAGACTCAGCTCTTGACCTCATTGACAAAATGTTAACAGTAGATGTTAACAAACGCATTAATATTGATCAATGTCTTGAACATCCATGGCTAACTCAAAGAGAATCAACGACTTTGCCAGGTGATTACTCTGAAGTTCTTGACGAACTT
Consider B6, for which the “% decrease =/− SE TP1” value is 4 ± 4%.

B7: GS1874: dsRNA trigger SEQ ID NO 120; gene target eka-like_protein (nucleic acid)
chain: CTAGAGCAGCCACGTGTAGCATGAAACCCATGACAACGTTTGCATTGTTGTATTGGTTGGCATGGTTTGTACAGTATAGCGACTCCTGATTCGTCGAATAGTCGGAATCCGGGTCATGGAGCTTGTTCTCGGGAAAAATGTGCCAGCCAAGAGCGATGTGGAGCACCAGAACGAGTCTTACCATGTACCCTAACCATCTTAGGCGCAAAGTTAGTGACTTTGATAATTTCGGCTACAAGGTTAGTATCGTCGACTGTCACACTTCCACTAGAAGTTTGACGGGCAACGGGAACAGTTGCAATACGATATGTAATAAGATCAGACGCCGGTTCTAGCTTGGCACCCTGAAAAGATATTCTATCACTGTCATTTAGTAGCTTTTGCCTTATCTCCTTTTCTTTGATAGTAAGTGCGAAGCCAGTGGGGGTTCGAGCGATGAGCGTCACATCAGATGGTACACAATTTAGATTTTTGCACAATATTT
For B7, the “% decrease =/− SE TP1” value was 25 ± 4% and the “% decrease =/− SE TP2” value was determined as 14 ± 5%.

B8: GS1888: dsRNA trigger SEQ ID NO 182; gene target Succinate dehydrogenase [ubiquinone] iron-sulfur subunit, mitochondrial (nucleic acid)
chain: TTTTAGGCGTTACAATCTTCAATAAATAACTAACATCGATAACAGGTCGTATACCAGCAGATACTAGTAAAGAAACGAAGATTTACCCCCTTCCTCATACCTATGTAGTTAAGGACATCGTCCCAGATCTCACACAGTTTTACAAACAGTATAAGTCCATCAAGCCATACCTTCAACGTACATCTCCCTCACCCAATGGTAAAGAATATCTACAAAGTAAGGAGGACAGAAAAAAACTCGATGGGTTATATGAGTGCATTTTGTGCGCATGCTGTTCTACTTCATGCCCCTCTTACTGGTGGAACTCTGAAGAATACTTGGGCCCAGCTGTTCTGATGCAAAGCTATAGATGGTTAGCAGATTCTCGAGATGAAAAGACAGCTGAGCGAAAGAGTGCTCTGGATAATAGTATGAGTCTCTATCGATGTCATACCATATTAAATTGTT
For the molecule B8, the “% decrease =/− SE TP1” value worked out at 19 ± 6% and the “% decrease =/− SE TP2” value is 19 ± 6%.

B9: GS1876: dsRNA trigger SEQ ID NO 210; gene target Uncharacterized transcriptional regulatory protein YKL222C (nucleic acid)
chain: CGCGTTCATAAAATATATCTTCATAATCAGCGTATTTAGGTGAAAGTGTAGTAGCCAATGTCCACATGGCATAGCATAGACAAATTGGAGGACGGGTCTGAATTGGACGTTCCAAAGACATGTAAAACCGGGCTTGATGTATGATGGGCATTGAAGGGTGATAGAGAGTGAAGTAGATATGATATAATTCTTTAATCATATAATCAGGCGGTAATGGTTCTTGAAGACCTAAGCTTAGTAGCTCTTTATTGATATTTGATGTAGTTTCTTTAGGCATCTGGGAGAAGCCTGAAATAGGTGGCGACGTTTCAATGGATGTAAGAAGAGGCCTACCATCAATTGCCAAATTCAAATCTATACCCATATTCCAATTTCTTTCGAGCCGGGGAGCTGCAGCATCGGGACTTATGATATCGCATTTTCCTTCCGAGTTGAGTCGAGTCTCCAATTGAGCTAGCCTAGCTTCAATTTCTTTTTCTTT
B9: the “% decrease =/− SE TP1” value is on record as 20 ± 6% and the “% decrease =/− SE TP2” value is on record as 10 ± 8%.
